Results from article PMC3005887 (Research letters in biochemistry, 2009).

T1: 6Hishub/6HisLCb (clathrin hub with bound clathrin light chain b) (bovine, UniProt P49951 1074-1675; P04975 1-228)
T1 sequence (looked up) 1: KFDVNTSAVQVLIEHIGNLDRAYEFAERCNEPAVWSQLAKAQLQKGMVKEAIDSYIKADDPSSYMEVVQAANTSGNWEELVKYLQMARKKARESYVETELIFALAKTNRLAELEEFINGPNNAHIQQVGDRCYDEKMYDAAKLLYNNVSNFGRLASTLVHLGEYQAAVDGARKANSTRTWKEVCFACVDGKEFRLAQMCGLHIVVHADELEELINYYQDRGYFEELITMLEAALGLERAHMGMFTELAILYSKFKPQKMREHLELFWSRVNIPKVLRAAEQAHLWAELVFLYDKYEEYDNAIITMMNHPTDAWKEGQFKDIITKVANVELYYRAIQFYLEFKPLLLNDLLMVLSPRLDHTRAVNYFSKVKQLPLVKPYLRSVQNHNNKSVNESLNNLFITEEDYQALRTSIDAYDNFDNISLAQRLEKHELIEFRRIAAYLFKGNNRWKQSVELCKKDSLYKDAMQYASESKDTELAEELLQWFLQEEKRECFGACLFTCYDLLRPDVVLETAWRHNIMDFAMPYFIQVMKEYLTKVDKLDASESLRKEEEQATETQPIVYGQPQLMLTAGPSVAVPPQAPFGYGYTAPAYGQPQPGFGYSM
T1 sequence (looked up) 2: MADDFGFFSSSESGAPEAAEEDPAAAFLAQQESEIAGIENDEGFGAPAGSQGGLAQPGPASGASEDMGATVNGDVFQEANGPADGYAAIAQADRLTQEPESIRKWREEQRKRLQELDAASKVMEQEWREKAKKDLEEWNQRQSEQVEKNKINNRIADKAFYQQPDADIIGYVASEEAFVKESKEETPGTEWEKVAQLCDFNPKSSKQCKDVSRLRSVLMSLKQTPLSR

T2: 6Hishub alone (clathrin hub, bovine clathrin heavy chain aa1074-1675, no bound LCb) (bovine, UniProt P49951 1074-1675)
T2 sequence (looked up): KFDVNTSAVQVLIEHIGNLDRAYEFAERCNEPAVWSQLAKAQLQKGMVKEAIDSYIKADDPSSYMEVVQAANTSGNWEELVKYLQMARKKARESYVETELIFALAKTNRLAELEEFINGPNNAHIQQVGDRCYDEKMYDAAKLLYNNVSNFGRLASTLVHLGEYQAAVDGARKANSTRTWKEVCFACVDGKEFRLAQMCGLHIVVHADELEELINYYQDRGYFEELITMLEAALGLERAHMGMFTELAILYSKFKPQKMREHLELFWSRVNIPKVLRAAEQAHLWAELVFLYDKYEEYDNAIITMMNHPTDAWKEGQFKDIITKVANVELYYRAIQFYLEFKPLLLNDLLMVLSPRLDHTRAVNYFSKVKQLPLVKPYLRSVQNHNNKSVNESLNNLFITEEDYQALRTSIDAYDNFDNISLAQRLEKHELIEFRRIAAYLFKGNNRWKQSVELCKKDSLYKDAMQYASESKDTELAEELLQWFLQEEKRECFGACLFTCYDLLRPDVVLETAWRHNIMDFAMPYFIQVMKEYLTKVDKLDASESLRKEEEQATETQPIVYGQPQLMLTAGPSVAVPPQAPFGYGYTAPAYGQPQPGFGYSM


Assays:
[1] = biological target: T1, 6Hishub/6HisLCb (clathrin hub with …); test: pull-down; GST or GST-HIP1h on glutathione Sepharose 4B beads; 6HisLCb and hub premixed 3:1 at 4 C for at least 30 min; 0.4 nmol hub alone or 1.9 nmol hub/6HisLCb complex; binding buffer 50 mM Tris, 200 mM KCl, 1 mM EDTA, 1% Triton X-100, 50 mM imidazole, 0.5 mg/ml ovalbumin, pH 8.0; 4 C, 1 hour; Western blot (anti-His, CON.1, anti-GST); details: both partners purified
[2] = biological target: T2, 6Hishub alone (clathrin hub, bovine …); test: as above; details: both partners purified

binding result [1]	binding result [2]	Binder
binds	–	GST-HIP1h (Huntingtin-interacting protein 1, aa370-644), wild type (domain or fragment, human, UniProt O00291-1 370-644, looked up) KDEKDHLIERLYREISGLKAQLENMKTESQRVVLQLKGHVSELEADLAEQQHLRQQAADDCEFLRAELDELRRQREDTEKAQRSLSEIERKAQANEQRYSKLKEKYSELVQNHADLLRKNAEVTKQVSMARQAQVDLEREKKELEDSLERISDQGQRKTQEQLEVLESLKQELATSQRELQVLQGSLETSAQSEANWAAEFAELEKERDSLVSGAAHREEELSALRKELQDTQLKLASTEESMCQLAKDQRKMLLVGSRKAAEQVIQDALNQLEE
–	binds	6HisLCb (N-terminally histidine-tagged bovine clathrin light chain b with the neuronal insert) (natural protein, UniProt P04975 1-228, looked up) MADDFGFFSSSESGAPEAAEEDPAAAFLAQQESEIAGIENDEGFGAPAGSQGGLAQPGPASGASEDMGATVNGDVFQEANGPADGYAAIAQADRLTQEPESIRKWREEQRKRLQELDAASKVMEQEWREKAKKDLEEWNQRQSEQVEKNKINNRIADKAFYQQPDADIIGYVASEEAFVKESKEETPGTEWEKVAQLCDFNPKSSKQCKDVSRLRSVLMSLKQTPLSR
binds	–	GST-HIP1h (aa370-644) R500E (domain or fragment, human, UniProt O00291-1 370-644, looked up) KDEKDHLIERLYREISGLKAQLENMKTESQRVVLQLKGHVSELEADLAEQQHLRQQAADDCEFLRAELDELRRQREDTEKAQRSLSEIERKAQANEQRYSKLKEKYSELVQNHADLLRKNAEVTKQVSMAEQAQVDLEREKKELEDSLERISDQGQRKTQEQLEVLESLKQELATSQRELQVLQGSLETSAQSEANWAAEFAELEKERDSLVSGAAHREEELSALRKELQDTQLKLASTEESMCQLAKDQRKMLLVGSRKAAEQVIQDALNQLEE
binds	–	GST-HIP1h (aa370-644) R508E (domain or fragment, human, UniProt O00291-1 370-644, looked up) KDEKDHLIERLYREISGLKAQLENMKTESQRVVLQLKGHVSELEADLAEQQHLRQQAADDCEFLRAELDELRRQREDTEKAQRSLSEIERKAQANEQRYSKLKEKYSELVQNHADLLRKNAEVTKQVSMARQAQVDLEEEKKELEDSLERISDQGQRKTQEQLEVLESLKQELATSQRELQVLQGSLETSAQSEANWAAEFAELEKERDSLVSGAAHREEELSALRKELQDTQLKLASTEESMCQLAKDQRKMLLVGSRKAAEQVIQDALNQLEE
binds	–	GST-HIP1h (aa370-644) K511E (domain or fragment, human, UniProt O00291-1 370-644, looked up) KDEKDHLIERLYREISGLKAQLENMKTESQRVVLQLKGHVSELEADLAEQQHLRQQAADDCEFLRAELDELRRQREDTEKAQRSLSEIERKAQANEQRYSKLKEKYSELVQNHADLLRKNAEVTKQVSMARQAQVDLEREKEELEDSLERISDQGQRKTQEQLEVLESLKQELATSQRELQVLQGSLETSAQSEANWAAEFAELEKERDSLVSGAAHREEELSALRKELQDTQLKLASTEESMCQLAKDQRKMLLVGSRKAAEQVIQDALNQLEE
